Measurements taken from paper PMC4072508 (PLoS Computational Biology, 2014).
FAM = fluorescein group

T1: Bcl-w (human, UniProt Q92843 1-193)
T1 construct: human Bcl-w; The c-Myc tag is told for the SPOT arrays; also called c-Myc-tagged receptor; prosurvival protein
T1 sequence (looked up): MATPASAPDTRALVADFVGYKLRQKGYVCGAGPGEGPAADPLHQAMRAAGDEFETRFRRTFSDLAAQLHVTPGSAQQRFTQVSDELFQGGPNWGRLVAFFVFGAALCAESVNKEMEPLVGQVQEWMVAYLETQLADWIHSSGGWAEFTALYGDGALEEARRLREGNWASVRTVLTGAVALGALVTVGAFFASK

T2: Bfl-1 (human, UniProt Q16548 1-175)
T2 construct: human Bfl-1; The c-Myc tag is told for the SPOT arrays; also called c-Myc-tagged receptor; prosurvival protein
T2 sequence (looked up): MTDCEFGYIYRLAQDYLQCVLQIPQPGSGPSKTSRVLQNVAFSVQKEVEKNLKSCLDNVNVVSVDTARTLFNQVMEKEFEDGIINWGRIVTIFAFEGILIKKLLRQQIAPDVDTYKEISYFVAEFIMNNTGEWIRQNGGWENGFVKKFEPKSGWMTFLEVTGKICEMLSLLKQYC


Key:
Assay in all cases: fluorescence polarisation; direct binding: 10 nM FAM-labeled peptide, receptor serially diluted; 25°C; 20 mM NaPO4, 50 mM NaCl, 1 mM EDTA, 0.001% Triton X, pH 7.8; single-site binding model
Details in all cases: both partners purified
Bcl-2 = target: T3, Bcl-2 (human, UniProt P10415 1-239)
T3 construct: human Bcl-2; The c-Myc tag is told for the SPOT arrays; also called c-Myc-tagged receptor; prosurvival protein
T3 sequence (P10415 whole entry): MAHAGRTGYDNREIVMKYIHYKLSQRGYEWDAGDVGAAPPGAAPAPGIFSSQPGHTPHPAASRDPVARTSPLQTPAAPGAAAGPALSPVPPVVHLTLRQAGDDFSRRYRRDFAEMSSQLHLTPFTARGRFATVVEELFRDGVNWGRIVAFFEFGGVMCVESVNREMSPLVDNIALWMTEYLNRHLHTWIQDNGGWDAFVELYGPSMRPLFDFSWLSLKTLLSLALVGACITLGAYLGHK

Bcl-w = target: T1, Bcl-w
Mcl-1 = target: T4, Mcl-1 (human, UniProt Q07820 1-350)
T4 construct: human Mcl-1; The c-Myc tag is told for the SPOT arrays; also called c-Myc-tagged receptor; prosurvival protein
T4 sequence (Q07820 whole entry): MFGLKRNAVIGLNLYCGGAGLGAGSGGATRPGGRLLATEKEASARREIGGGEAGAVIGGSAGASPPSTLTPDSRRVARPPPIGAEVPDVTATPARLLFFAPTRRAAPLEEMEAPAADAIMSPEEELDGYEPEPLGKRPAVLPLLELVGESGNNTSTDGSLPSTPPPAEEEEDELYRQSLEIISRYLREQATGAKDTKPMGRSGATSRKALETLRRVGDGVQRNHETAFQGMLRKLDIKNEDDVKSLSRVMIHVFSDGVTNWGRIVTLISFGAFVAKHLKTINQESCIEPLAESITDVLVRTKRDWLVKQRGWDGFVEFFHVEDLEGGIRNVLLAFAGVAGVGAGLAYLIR

Bfl-1 = target: T2, Bfl-1

Row | Kd (Bcl-2) | Kd (Bcl-w) | Kd (Mcl-1) | Kd (Bfl-1) | Binder
1 | 40 nM |  |  |  | {FAM}-PFKAWGKFGGAFCRYADEMKEIQERQ-NH2 [PURB BH3-like peptide]
2 | < 30 nM | < 30 nM | < 30 nM | < 30 nM | {FAM}-IIQMIVELLKRVGDQWEEEQSLA-NH2 [c6orf222 BH3-like peptide]
